Molecular target: T1, VentX (Homo sapiens, UniProt O95231 SEQ:1-258)
T1 sequence: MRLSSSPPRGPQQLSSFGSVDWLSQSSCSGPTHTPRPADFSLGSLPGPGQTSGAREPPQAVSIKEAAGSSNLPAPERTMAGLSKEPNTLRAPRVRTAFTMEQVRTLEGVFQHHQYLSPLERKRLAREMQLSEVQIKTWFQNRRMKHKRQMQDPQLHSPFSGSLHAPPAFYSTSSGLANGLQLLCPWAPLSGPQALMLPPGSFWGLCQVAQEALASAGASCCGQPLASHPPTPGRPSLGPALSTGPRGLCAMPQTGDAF
Experiment: EMSA; fluorescence-based EMSA kit
Details: tags: pCS2-VentX, TNT reticulocyte lysate
Method: Lysate Systems, Promega). […] Gel shift assay was performed with a fluorescence-based Electrophoretic Mobility Shift Assay (EMSA) Kit from Invitrogen following the manufacturer's instruction. The following double-stranded oligonucleotides were used in the experiments: 5′-[…]-3′ (wild type M-CSFR probe, putative homeodomain binding sequence is in bold and underlined); 5′-[…]-3′ (mutant M-CSFR);

B1: M-CSFR promoter probe wild type (dsDNA)
DNA 1: CTGCGTCTCTAAAATAATAATAATAAATTTTTAAAAGATATGC
DNA 2: GCATATCTTTTAAAAATTTATTATTATTATTTTAGAGACGCAG
binding result: binds

Reference: patent US20140271682, “HUMAN HOMEOBOX GENE VENTX AND MACROPHAGE TERMINAL DIFFERENTIATION AND ACTIVATION, COMPOSITIONS AND METHODS THEREOF” (published 2014)
